4 molecules from PMC6667623, “Regulation of Glutarate Catabolism by GntR Family Regulator CsiR and LysR Family Regulator GcdR in Pseudomonas putida KT2440” (mBio, 2019) can be followed below.

The target in data set [1] is His6-tagged GcdR of P. putida KT2440 (Pseudomonas putida KT2440) (UniProt Q88RH3). Description: SEC; Superdex 200 10/300 GL gel filtration of purified GcdR against molecular mass standards, compared with SDS-PAGE; buffer A (20 mM sodium phosphate, 500 mM sodium chloride, pH 7.4), 0.5 ml min^-1.
Data set [2] deals with T1, GcdR (Pseudomonas putida KT2440) (UniProt Q88RH3).
T1 sequence: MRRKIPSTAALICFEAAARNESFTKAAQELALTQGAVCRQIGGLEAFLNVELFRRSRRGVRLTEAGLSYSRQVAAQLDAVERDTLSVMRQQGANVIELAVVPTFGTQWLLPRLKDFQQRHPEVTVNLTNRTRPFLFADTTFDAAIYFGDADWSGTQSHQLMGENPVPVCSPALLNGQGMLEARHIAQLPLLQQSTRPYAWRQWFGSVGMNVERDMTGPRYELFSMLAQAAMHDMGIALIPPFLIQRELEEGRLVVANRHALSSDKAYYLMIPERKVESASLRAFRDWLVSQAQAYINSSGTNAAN
Description: EMSA. The conditions noted are these: 10 mM Tris-HCl pH 7.4, 50 mM KCl, 0.5 mM EDTA, 10% glycerol, 1 mM DTT; 30 C, 30 min; 6% native PAGE at 4 C.

Data set [3] deals with T2, CsiR (Pseudomonas putida KT2440) (UniProt Q88IU1).
T2 sequence: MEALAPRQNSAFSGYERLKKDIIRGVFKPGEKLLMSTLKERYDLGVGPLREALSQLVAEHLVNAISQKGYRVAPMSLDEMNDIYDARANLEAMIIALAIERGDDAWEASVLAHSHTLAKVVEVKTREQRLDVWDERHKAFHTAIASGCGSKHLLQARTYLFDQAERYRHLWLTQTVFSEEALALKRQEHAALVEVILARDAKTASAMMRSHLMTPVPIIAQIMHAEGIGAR
Description: EMSA. Particulars: 10 mM Tris-HCl pH 7.4, 50 mM KCl, 0.5 mM EDTA, 10% glycerol, 1 mM DTT; 30 C, 30 min; 6% native PAGE at 4 C.

Data set [4] deals with the molecule itself. The data set can be described thus: SEC; Superdex 200 10/300 GL gel filtration of purified CsiR against molecular mass standards, compared with SDS-PAGE; buffer C (50 mM sodium phosphate, 150 mM sodium chloride, pH 7.2), 0.5 ml min^-1.

In turn, “His6-tagged GcdR of P. putida KT2440 (from UniProt Q88RH3 1-305) (natural protein)” displayed a stoichiometry N in data set [1] of 4.

Take “GCCGCCTCGAAGCAAATCAGGGCGGCGGTACTGGGGATCTTACGGCGCATGTACGTCAACCTCACTTGTAAGGCTGTCAATAAGGCGTTTTGCCGATTTACGGAGTGACAAAATATCACTAATCGGTGCGCAATCCTCGTTTGTCGCCGCAGCCGATCAGGCCTAGGCTCAAAGGCACAAGAAACTGACCCCTATTTCGAGGATTCGCTCATGGTCGGTAAAGCAAGTTTCAACTGGATCGACCCGTTGCTGCTGGATCA (double strand)”: in data set [2], the binding entry was “binds”.

On to “GATCCTGTTCCTCAAAACGTTTTGCCGATCATACCGAAACCCTCTGCTGACGAAAAACAATGGACAAACACGAGTAGTGTCGTTGAAAAATAAAAATGTAGACATTTTCAGTTAGTGGCGATATTTTTACCTCGCCCGCACTGATCCAGGTCATGACCGGACGGCGCCATCTACTTTTTTAGCCAGGACACTGCC (double strand) [F1 (csiR-csiD intergenic region)]”, for which the binding entry in data set [3] is on record as “binds”.

B1: His6-tagged CsiR protein of P. putida KT2440 (natural protein, Pseudomonas putida KT2440, UniProt Q88IU1 1-231, looked up)
chain: MEALAPRQNSAFSGYERLKKDIIRGVFKPGEKLLMSTLKERYDLGVGPLREALSQLVAEHLVNAISQKGYRVAPMSLDEMNDIYDARANLEAMIIALAIERGDDAWEASVLAHSHTLAKVVEVKTREQRLDVWDERHKAFHTAIASGCGSKHLLQARTYLFDQAERYRHLWLTQTVFSEEALALKRQEHAALVEVILARDAKTASAMMRSHLMTPVPIIAQIMHAEGIGAR
notes: CsiR, GntR family transcriptional regulator of Pseudomonas putida KT2440, encoded by csiR (pp2908); gene amplified from genomic DNA with primers csiR-F/csiR-R and cloned BamHI/HindIII into pETDuet-1; Cloning into the BamHI/HindIII sites of pETDuet-1 would usually give an N-terminal His tag (surmise); No tag cleavage is described; also called GntR family regulator CsiR; source: E. coli BL21(DE3) …
Regarding B1, the “stoichiometry N” value in data set [4] was 2.
